Assay results published in patent US20060272039.
Positions count from the first letter of the chain named.

B1: Xpress-tagged JNK-1 (protein)
chain: MEERLSTTSSYPSHPGRSVEEDHNTLLASSSISSIIRGTRGHLNNFIESVGNWLVPSSSGRDDDAVSLDSCQSVYSPVRHHINSGTGGGILMEPSSIHVPENYYSVTIGEAQMVVLKRYQNLRLIGSGAQGIVCSAFDTVRNEQVAIKKLSRPFQNVTHAKRAYRELKLMSLVNHKNIIGILNCFTPQKKLDEFNDLYIVMELMDANLCQVIQMDLDHERLSYLLYQMLCGIRHLHSAGIIHRDLKPSNIVVRSDCTLKILDFGLARTAIEAFMMTPYVVTRYYRAPEVILGMGYKENVDVWSIGCIFGELIRGRVLFPGGDHIDQWTRIIEQLGTPDRSFLERLQPTVRNYVENRPRYQATPFEVLFSDNMFPMTADSSRLTGAQARDLLSRMLVIDPERRISVDDALRHPYVNVWFDEIEVYAPPPLPYDHNMDVEQNVDSWREHIFRELTDYARTHDIYS
B2: kinase-dead JNK-1 (APF) (protein)
chain: B1 chain with T276A, Y278F

Tests used:
[1] = biological target: His-DAF-16 (C-terminal fragment), O16850
His-DAF-16 (C-terminal fragment), O16850, sequence (O16850 whole entry, looked up, the tested form may be a part): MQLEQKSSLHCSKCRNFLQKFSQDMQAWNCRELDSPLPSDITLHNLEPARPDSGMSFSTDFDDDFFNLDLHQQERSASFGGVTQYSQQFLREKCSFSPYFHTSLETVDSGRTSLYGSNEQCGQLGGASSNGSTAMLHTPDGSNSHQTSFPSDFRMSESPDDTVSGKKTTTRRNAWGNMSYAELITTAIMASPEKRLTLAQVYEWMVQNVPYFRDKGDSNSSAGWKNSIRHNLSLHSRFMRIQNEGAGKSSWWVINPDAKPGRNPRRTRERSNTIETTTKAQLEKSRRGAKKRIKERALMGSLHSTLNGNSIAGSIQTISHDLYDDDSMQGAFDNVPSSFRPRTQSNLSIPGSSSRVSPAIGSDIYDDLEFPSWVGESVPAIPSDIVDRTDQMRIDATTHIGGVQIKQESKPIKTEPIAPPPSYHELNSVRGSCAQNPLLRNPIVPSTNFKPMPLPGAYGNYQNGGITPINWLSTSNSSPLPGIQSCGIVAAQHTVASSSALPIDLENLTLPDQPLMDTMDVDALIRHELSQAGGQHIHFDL

[2] = biological target: His-DAF-16 (N-terminal fragment), O16850
His-DAF-16 (N-terminal fragment), O16850, sequence (O16850 whole entry, looked up, the tested form may be a part): as above

GST-c-Jun (1-79), sequence (P05412 1-79): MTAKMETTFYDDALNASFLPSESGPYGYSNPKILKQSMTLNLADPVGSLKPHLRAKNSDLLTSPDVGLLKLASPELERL

Protein | in vitro kinase assay (phosphorylation, [γ-32P]ATP, autoradiography) [1] | in vitro kinase assay (phosphorylation, [γ-32P]ATP, autoradiography) [2] | in vitro kinase assay (phosphorylation, [γ-32P]ATP, autoradiography) (GST-c-Jun (1-79))
B1 | The phosphorylation was only observed with the N-terminal (83-307) fragment of DAF-16, but not with the C-terminal (255-470) fragment (data not shown) | Upon activation of JNK-1 by UV, JNK-1 phosphorylates DAF-16 | JNK-1 phosphorylates DAF-16 as well as the mammalian c-Jun protein used as a positive control
B2 | – | The kinase-dead JNK-1 (APF) failed to phosphorylate DAF-16 | –
